Laboratory results as given in PMC8915792 (Proceedings of the National Academy of Sciences of the …, 2022).

Target: the molecule itself
Experiment: fluorescence polarisation

B1: HaloTag-ABS3 (human talin-1 C-terminal actin-binding domain, residues 2,293 to 2,541, as a HaloTag fusion protein) (domain or fragment)
chain: TEWVDPEDPTVIAENELLGAAAAIEAAAKKLEQLKPRAKPKEADESLNFEEQILEAAKSIAAATSALVKAASAAQRELVAQGKVGAIPANALDDGQWSQGLISAARMVAAATNNLCEAANAAVQGHASQEKLISSAKQVAASTAQLLVACKVKADQDSEAMKRLQAAGNAVKRASDNLVKAAQKAAAFEEQENETVVVKEKMVGGIAQIIAAQEEMLRKERELEEARKKLAQIRQQQYKFLPSELRDEH
- Kd: 1900 ± 200 nM
